Data from patent US20220177587A1, “METHODS AND USES OF VARIANT CD80 FUSION PROTEINS AND RELATED CONSTRUCTS” (Alpine Immune Sciences, Inc., priority 2018, published 2022).
Substitutions are numbered along the chain they refer to. Names and notes keep the numbering of the source.

B1: V22A/E35D/M47I/Y87N (protein)
chain: VIHVTKEVKEVATLSCGHNVSAEELAQTRIYWQKDKKMVLTMMSGDINIWPEYKNRTIFDITNNLSIVILALRPSDEGTYECVVLKNEKDAFKREHLAEVTLSVKADFPTPSISDFETPTSNIRRIICSTSGGFPEPHLSWLENGEELNAINTTVSQDPETELYAVSSKLDFNMTTNHSFMCLIKYGHLRVNQTFNWNTTKQEHFPDN
modifications: CD80 v253 ECD
B2: V22L/Q27H/E35D/M47I/A71G (protein)
chain: B1 chain with A22L, Q27H, A71G, N87Y
modifications: CD80 v274 ECD
B3: E35D/M47L/L85Q: variant CD80 IgV-Fc, IgV SEQ ID NO:418 (protein)
chain: VIHVTKEVKEVATLSCGHNVSVEELAQTRIYWQKDKKMVLTMMSGDLNIWPEYKNRTIFDITNNLSIVILALRPSDEGTYECVVQKYEKDAFKREHLAEVTLSVKAD
B4: A71D/L72V/E95K: variant CD80 IgV-Fc, IgV SEQ ID NO:192 (protein)
chain: B3 chain with D35E, L47M, A71D, L72V, Q85L, E95K
B5: Q33L/E35D/M47I/N48D/A71G (protein, UniProt P33681 35-288, looked up, variant Q33L E35D M47I N48D A71G)
T-lymphocyte activation …: VIHVTKEVKEVATLSCGHNVSVEELAQTRIYWLKDKKMVLTMMSGDIDIWPEYKNRTIFDITNNLSIVILGLRPSDEGTYECVVLKYEKDAFKREHLAEVTLSVKADFPTPSISDFEIPTSNIRRIICSTSGGFPEPHLSWLENGEELNAINTTVSQDPETELYAVSSKLDFNMTTNHSFMCLIKYGHLRVNQTFNWNTTKQEHFPDNLLPSWAITLISVNGIFVICCLTYCFAPRCRERRRNERLRRESVRPV
B6: E35D/T41S/M43V/M47I/L70M/A71G (protein, UniProt P33681 35-288, looked up, variant E35D T41S M43V M47I L70M A71G)
T-lymphocyte activation …: B5 T-lymphocyte activation … with L33Q, T41S, M43V, D48N, L70M
modifications: Fc fusion
B7: R29H/E35D/M43V/M47I/I49V (protein, UniProt P33681 35-288, looked up, variant R29H E35D M43V M47I I49V)
T-lymphocyte activation …: B5 T-lymphocyte activation … with R29H, L33Q, M43V, D48N, I49V, G71A
B8: E35D/D46E/M47V/N63D/L85Q (protein, UniProt P33681 35-288, looked up, variant E35D D46E M47V N63D L85Q)
T-lymphocyte activation …: B5 T-lymphocyte activation … with L33Q, D46E, I47V, D48N, N63D, G71A, L85Q
B9: E35D/M47I/L85Q/D90G (protein, UniProt P33681 35-288, looked up, variant E35D M47I L85Q D90G)
T-lymphocyte activation …: B5 T-lymphocyte activation … with L33Q, D48N, G71A, L85Q, D90G
B10: H18Y/A26E/E35D/M47L/L85Q/D90G (protein, UniProt P33681 35-288, looked up, variant H18Y A26E E35D M47L L85Q D90G)
T-lymphocyte activation …: B5 T-lymphocyte activation … with H18Y, A26E, L33Q, I47L, D48N, G71A, L85Q, D90G

Experiments:
[1] = molecular target: T1, CD28 (Homo sapiens, UniProt P10747); experiment: Flow binding to Jurkat/IL2 reporter cells (CD28); design: host or cells: Jurkat cells expressing an IL-2-luciferase reporter; conditions: for CD28 Fold change to WT CD80: MFI ratio to WT CD80 ECD-Fc (R&D) at 33.3 nM
Method in brief: (§1)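 Fusion proteins bound to CHO cells stably expressing CTLA4 or PD-L1, or to Jurkat/IL2 reporter cells with endogenous CD28, for 45 min on ice after blocking in PBS/1% BSA. Detection with PE anti-human Fc by flow cytometry; PE MFI per cell type and binding EC50 determined.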

[2] = molecular target: huCTLA4 (Homo sapiens, UniProt P16410); experiment: Flow binding to CHO cells stably expressing CTLA4; design: huCTLA4 and huPD-L1, full-length mammalian surface expression constructs were generated; expressed in transfected cells; host or cells: CHO cells, lentiviral transduction, sorted to >98% purity; conditions: for CTLA4 Fold change to WT CD80: MFI ratio to WT CD80 ECD-Fc (R&D) at 33.3 nM
Method in brief: as §1

[3] = molecular target: T1, CD28; experiment: Jurkat/IL2 + K562/OKT3/PD-L1 reporter assay; type: cell-based; design: host or cells: Jurkat cells expressing an IL-2-luciferase reporter; conditions: K562/OKT3/PD-L1 aAPC, 50 nM; for Relative Luciferase Units (RLU), CD80-Fe Cone 50 nM / Fold Increase over WT CD80-IgV-Fe: Table E8
[4] = molecular target: huPD-L1 (Homo sapiens, UniProt Q9NZQ7); experiment: Flow binding to CHO cells stably expressing PD-L1; design: huCTLA4 and huPD-L1, full-length mammalian surface expression constructs were generated; expressed in transfected cells; host or cells: CHO cells, lentiviral transduction, sorted to >98% purity; conditions: for PD-L1 Fold change to WT CD80: MFI ratio to WT CD80 ECD-Fc (R&D) at 33.3 nM; for Ratio of PDL1:CD28: binding to PD-L1 compared to binding to CD28
Method in brief: as §1

[5] = molecular target: T1, CD28; experiment: CD28 costimulation via Fc receptor or PD-L1 dependent cross-linking (Jurkat/IL2 + K562/OKT3 +/- PD-L1); type: cell-based; design: host or cells: Jurkat cells expressing an IL-2-luciferase reporter; conditions: K562/0KT3 aAPC, luciferase signal
Procedure: In a further experiment, CD28 costimulation was assessed for variant CD80-IgV-Fc fusion proteins, where the Fc was an IgG1 Fc (e.g. SEQ ID NO:1517) capable of mediating effector activity via binding to Fc receptors (FcR). The experiment was carried out as described in part A above, except CD32-expressing K562 cells stably transduced with OKT3 (K562/OKT3) or OKT3 and PD-L1 (K562/OKT3/PD-L1) were used instead of the CHO/OKT3 and CHO/OKT3/PD-L1 cells, and the results are depicted in Table E9.

[6] = molecular target: T1, CD28; experiment: Jurkat/IL2 reporter assay: blockade of CD28 costimulation (plate-bound anti-CD3/CD86-Fc); type: cell-based; design: host or cells: Jurkat cells expressing an IL-2-luciferase reporter; conditions: Table E5; protein diluted to 40 nM before mixing with cells; 5 hours
Method in brief: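 Jurkat cells carrying an IL-2–luciferase reporter were preincubated 15 min at room temperature with CD80-Fc fusion molecules, then added to plates coated overnight with anti-CD3 and CD86-Fc. After 5 h at 37 °C, luciferase luminescence was read with Bio-Glo.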

[7] = molecular target: T1, CD28; experiment: Jurkat/IL2 + CHO/OKT3 +/- PD-L1 reporter assay: PD-L1-dependent CD28 costimulation; type: cell-based; design: host or cells: Jurkat cells expressing an IL-2-luciferase reporter; conditions: luciferase signal
Method in brief: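 Jurkat reporter cells (100,000/well) preincubated 15 min at room temperature with test protein, then cocultured 5 h at 37 °C with CHO aAPCs bearing anti-CD3 scFv (OKT3) with or without PD-L1. Luciferase luminescence (RLU) read after lysis-substrate addition.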

[8] = Table E4, 33.3 nM variant CD80 IgV-Fc, CHO cells stably expressing CTLA4
[9] = Table E4, CHO cells stably expressing PD-L1

Chain of huCTLA4 (P16410 36-223): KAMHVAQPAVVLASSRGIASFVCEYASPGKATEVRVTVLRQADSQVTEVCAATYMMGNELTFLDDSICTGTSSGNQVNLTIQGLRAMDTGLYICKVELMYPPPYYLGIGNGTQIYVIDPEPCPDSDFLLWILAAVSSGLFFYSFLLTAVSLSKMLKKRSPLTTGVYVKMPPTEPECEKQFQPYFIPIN
Chain of huPD-L1 (Q9NZQ7 19-290): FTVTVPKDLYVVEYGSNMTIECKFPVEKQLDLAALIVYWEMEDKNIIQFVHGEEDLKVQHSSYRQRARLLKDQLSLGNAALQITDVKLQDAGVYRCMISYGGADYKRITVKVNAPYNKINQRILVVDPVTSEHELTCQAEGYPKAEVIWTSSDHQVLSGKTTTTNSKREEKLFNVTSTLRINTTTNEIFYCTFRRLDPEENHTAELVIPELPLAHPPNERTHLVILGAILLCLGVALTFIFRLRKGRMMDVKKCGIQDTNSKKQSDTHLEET

Row | Molecule | CD28 MFI at 33.3 nM ([1]; Table E4, Jurkat cells (CD28)) | CTLA4 MFI at 33.3 nM [2, 8] | Relative Luciferase Units (RLU), CD80-Fe Cone 50 nM [3] [RLU] | CD28 Fold change to WT CD80 ([1]; Table E4) | CTLA4 Fold change to WT CD80 ([2]; Table E4) | Fold Increase over WT CD80-IgV-Fe [3] | PD-L1 MFI at 33.3 nM [4, 9] | PD-L1 Fold change to WT CD80 ([4]; Table E4) | Ratio of PDL1:CD28 ([4]; Table E4) | also measured
1 | B1 | 15299 | 245711 | 1388 | – | – | – | – | – | – | –
2 | B2 | 7269 | 151600 | 1123 | – | – | – | – | – | – | –
3 | B3 | – | – | – | – | – | – | – | – | – | CD28 MFI at 33.3 nM ([1]; Table E3): 646; CD28 MFI at 33.3 nM ([1]; Table E19, Jurkats (CD28)): 46.3; CTLA4 MFI at 33.3 nM ([2]; Table E3, 33.3 nM): 336179; CTLA4 MFI at 33.3 nM ([2]; Table E19, CHO cells stably expressing CTLA4, 33.3 nM): 12909; Relative Luciferase Units (RLU), CD80-Fc Conc. 50 nM ([3]; Table E7): 2852 RLU; PD-L1 MFI at 33.3 nM ([4]; Table E3): 33200; PD-L1 MFI at 33.3 nM ([4]; Table E19, CHO cells stably expressing PD-L1): 6097
4 | B4 | – | – | – | – | – | – | – | – | – | CD28 costimulation, FcR Dependent Cross-Linking (No PD-L1), 0.6 nM ([5]; 0.6 nM): 1821; CD28 costimulation, FcR Dependent Cross-Linking (No PD-L1), 50 nM ([5]; 50 nM): 7109; Average Relative Luminescence Units [6]: 2939 Relative Luminescence Units; PD-L1-Dependent CD28 Costimulation, +PD-L1, 0.6 nM ([7]; CHO/OKT3/PD-L1 aAPC, 0.6 nM): 524; PD-L1-Dependent CD28 Costimulation, +PD-L1, 50 nM ([7]; CHO/OKT3/PD-L1 aAPC, 50 nM): 755; PD-L1-Dependent CD28 Costimulation, No PD-L1, 50 nM ([7]; CHO/OKT3 aAPC, no PD-L1, 50 nM): 644; PD-L1-Dependent CD28 Costimulation, No PD-L1, […] ([7]; CHO/OKT3 aAPC, no PD-L1, […]): 466
5 | B5 | 644 | 116798 | 213 | 0.04 | 0.74 | 1.0 | 31151 | 2.62 | 48 | –
6 | B6 | 2698 | 249456 | 1672 | 0.15 | 1.59 | 8.1 | 12978 | 1.09 | 5 | –
7 | B7 | 336 | 4694 | 227 | 0.02 | 0.03 | 1.1 | 1590 | 0.13 | 5 | –
8 | B8 | 1331 | 274320 | 1381 | 0.07 | 1.74 | 6.7 | 69780 | 5.88 | 52 | –
9 | B9 | 4095 | 247703 | 1438 | 0.23 | 1.57 | 7.0 | 35710 | 3.01 | 9 | –
10 | B10 | 3540 | 230588 | 1506 | – | – | – | – | – | – | –
